These results are taken from publication PMC2583301.

Experiment [1] has as its target H2A refolded in the absence of H2B (Xenopus laevis) (UniProt P06897). Kind of experiment: AUC.
For experiment [2], the target named is yNap1 C200A/C249A/C272A labelled with Alexa dye at Cys-414 (yNap1m*) (yeast) (UniProt P25293). Kind of experiment: other fluorescence titration.
Experiment [3] has as its target H2A/H2B(T112C) dimer, H2B labelled with Alexa dye (Xenopus laevis) (UniProt P06897). Kind of experiment: other fluorescence titration.

Chain of yeast nucleosome assembly protein 1 (yNap1), wild type (P25293 whole entry): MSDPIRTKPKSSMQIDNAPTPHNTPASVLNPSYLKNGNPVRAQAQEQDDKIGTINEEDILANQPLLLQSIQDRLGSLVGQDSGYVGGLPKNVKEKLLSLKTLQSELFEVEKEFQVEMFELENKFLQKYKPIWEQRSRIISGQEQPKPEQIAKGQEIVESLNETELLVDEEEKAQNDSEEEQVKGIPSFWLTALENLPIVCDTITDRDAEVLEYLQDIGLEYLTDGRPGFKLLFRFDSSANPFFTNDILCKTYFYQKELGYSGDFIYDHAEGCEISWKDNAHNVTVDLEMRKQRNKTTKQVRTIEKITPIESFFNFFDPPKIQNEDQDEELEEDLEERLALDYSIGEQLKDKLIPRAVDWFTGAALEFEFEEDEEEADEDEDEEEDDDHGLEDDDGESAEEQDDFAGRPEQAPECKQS
Chain of yNap1 C200A/C249A/C272A labelled with Alexa dye at Cys-414 (yNap1m*) (yeast) (P25293 whole entry C200A/C249A/C272A): as the sequence (P25293 whole entry) above, with C200A, C249A, C272A counted along it

“H2A refolded in the absence of H2B (from UniProt P06897 1-130) (natural protein)”: in experiment [1], the stoichiometry N (as a rule, a count of units in the complex or per binding partner) came out at 2.

Substance “H2A/H2B dimer (major type, wild type) (from UniProt P06897;P02281) (complex)” came in with a stoichiometry N (H2A/H2B dimer per yNap1 monomer) in experiment [2] of 1.

As for “Tailless H2A/H2B dimer (from UniProt P06897 15-119) (complex)”, the Kd – broadly, the constant that tells how readily two partners part at equilibrium – in experiment [2] amounted to 2.1 nM.

In the case of “yeast nucleosome assembly protein 1 (yNap1), wild type (from UniProt P25293 1-417) (natural protein)”, in experiment [3], the Kd turned out to be 1.3 nM and the Kd app (yNap1 counted as dimer) came to 0.7 nM.
